System: target antigen-expressing cell line
Experiment: Jurkat NFAT-GFP assay, coculture with target cell lines expressing the respective target antigen (summary Table 10A)
Format: cell-based, human
Design: key: The signs +/−, +, 2+ etc. after the name of the cell lines indicate the relative degree of positivity on the Jurkat-NFAT-GFP assay as measured by the % GFP positive cells; +: relative degree of positivity on the Jurkat-NFAT-GFP assay as measured by the % GFP positive cells; 2+: relative degree of positivity on the Jurkat-NFAT-GFP assay as measured by the % GFP positive cells
Details: relative % GFP positive cells; for NFAT-GFP ASSAY Positive Cell lines: NALM6: SIR-expressing Jurkat-NFAT-GFP cells cocultured with NALM6; for NFAT-GFP ASSAY Positive Cell lines: RAJI: SIR-expressing Jurkat-NFAT-GFP cells cocultured with RAJI
Summary of the method: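 Jurkat cells carrying an NFAT-driven GFP reporter and lentivirally expressing a SIR were cocultured with antigen-bearing target cells (E:T ~1:2) for about 4–18 h. GFP induction read by flow cytometry as % GFP+ cells, scored positive and graded (+/−, +, 2+) against parental Jurkat-NFAT-GFP cells.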

Molecule | NFAT-GFP ASSAY Positive Cell lines: NALM6 | NFAT-GFP ASSAY Positive Cell lines: RAJI | NFAT-GFP ASSAY Positive Cell lines: L363 (SIR-expressing Jurkat-NFAT-GFP cells cocultured with L363) | NFAT-GFP ASSAY Positive Cell lines: U266 (SIR-expressing Jurkat-NFAT-GFP cells cocultured with U266)
010417-L03 (protein) MALPVTALLLPLALLLHAARPLEQKLISEEDLGSGDRPDPAVYQLRDSKSSDKSVCLFTDFDSQTNVSQSKDSDVYITDKCVLDMRSMDFKSNSAVAWSNKSDFACANAFNNSIIPEDTFFPSPESSCDVKLVEKSFETDTNLNFQNLSVIGFRILLLKVAGFNLLMTLRLWSSSSRAKRSGSGVKQTLNFDLLKLAGDVESNPGPTSMALPVTALLLPLALLLHAARPEIVLTQSPDFQSVTPKEKVTITCRASESVDTFGISFMNWFQQKPDQSPKLLIHAASNQGSGVPSRFSGSGSGTDFTLTINSLEAEDAATYYCQQSKEVPFTFGGGTKVEIKGGGGSGGGGSGGGGSEVQLVESGGGLVQPGGSLRLSCAASGFTFSSSWMNWVRQAPGKGLEWVGRIYPGDGDTNYNGKFKGRFTISRDDSKNSLYLQMNSLKTEDTAVYYCARSGFITTVLDFDYWGQGTLVTVSSTRGKPIPNPLLGLDSTGSGEDLKNVFPPEVAVFEPSEAEISHTQKATLVCLATGFYPDHVELSWWVNGKEVHSGVCTDPQPLKEQPALNDSRYCLSSRLRVSATFWQNPRNHFRCQVQFYGLSENDEWTQDRAKPVTQIVSAEAWGRADCGFTSESYQQGVLSATILYEILLGKATLYAVLVSALVLMAMVKRKDSRGRAKRSGSGATNFSLLKQAGDVEENPGPSRGHMTEYKPTVRLATRDDVPRAVRTLAAAFADYPATRHTVDPDRHIERVTELQELFLTRVGLDIGKVWVADDGAAVAVWTTPESVEAGAVFAEIGPRMAELSGSRLAAQQQMEGLLAPHRPKEPAWFLATVGVSPDHQGKGLGSAVVLPGVEAAERAGVPAFLETSAPRNLPFYERLGFTVTADVEVPEGPRTWCMTRKPGA | RAJI (+), NALM6 (+) | RAJI (+), NALM6 (+) |  | 
011317-A06 (protein) MALPVTALLLPLALLLHAARPLEQKLISEEDLGSGDRPDPAVYQLRDSKSSDKSVCLFTDFDSQTNVSQSKDSDVYITDKCVLDMRSMDFKSNSAVAWSNKSDFACANAFNNSIIPEDTFFPSPESSCDVKLVEKSFETDTNLNFQNLSVIGFRILLLKVAGFNLLMTLRLWSSSSRAKRSGSGVKQTLNFDLLKLAGDVESNPGPTSMALPVTALLLPLALLLHAARPEIVLTQSPDFQSVTPKEKVTITCRASESVDTFGISFMNWFQQKPDQSPKLLIHAASNQGSGVPSRFSGSGSGTDFTLTINSLEAEDAATYYCQQSKEVPFTFGGGTKVEIKGGGGSGGGGSGGGGSEVQLVESGGGLVQPGGSLRLSCAASGFTFSSSWMNWVRQAPGKGLEWVGRIYPGDGDTNYNGKFKGRFTISRDDSKNSLYLQMNSLKTEDTAVYYCARSGFITTVLDFDYWGQGTLVTVSSTRGKPIPNPLLGLDSTGSGEDLKNVFPPEVAVFEPSEAEISHTQKATLVCLATGFYPDHVELSWWVNGKEVHSGVCTDPQPLKEQPALNDSRYCLSSRLRVSATFWQNPRNHFRCQVQFYGLSENDEWTQDRAKPVTQIVSAEAWGRADCGFTSESYQQGVLSATILYEILLGKATLYAVLVSALVLMAMVKRKDSRGRAKRSGSGATNFSLLKQAGDVEENPGPSRGHMTEYKPTVRLATRDDVPRAVRTLAAAFADYPATRHTVDPDRHIERVTELQELFLTRVGLDIGKVWVADDGAAVAVWTTPESVEAGAVFAEIGPRMAELSGSRLAAQQQMEGLLAPHRPKEPAWFLATVGVSPDHQGKGLGSAVVLPGVEAAERAGVPAFLETSAPRNLPFYERLGFTVTADVEVPEGPRTWCMTRKPGA | (2+) | RAJI (2+), NALM6 |  | 
010417-C03 (protein) MALPVTALLLPLALLLHAARPLEGKPIPNPLLGLDSTGSGEDLKNVFPPEVAVFEPSKAEIAHTQKATLVCLATGFYPDHVELSWWVNGKEVHSGVCTDPQPLKEQPALNDSRYCLSSRLRVSATFWQNPRNHFRCQVQFYGLSENDEWTQDRAKPVTQIVSAEAWGRADCGITSASYHQGVLSATILYEILLGKATLYAVLVSALVLMAMVKRKDSRGRAKRSGSGATNFSLLKQAGDVEENPGPTSTMALPVTALLLPLALLLHAARPDEIVLTQSPATLSLSPGERATLSCSASSSVSYMHWYQQKPGQAPRLLIYDTSKLASGIPARFSGSGSGTDFTLTISSLEPEDVAVYYCFQGSVYPFTFGQGTKLEIKRGGGGSGGGGSGGGGSQVQLQESGPGLVKPSQTLSLTCTVSGGSISTSGMGVGWIRQHPGKGLEWIGHIWWDDDKRYNPALKSRVTISVDTSKNQFSLKLSSVTAADTAVYYCARMELWSYYFDYWGQGTLVTVSSTREAAAKDIQMTQSPSSLSASVGDRVTITCKASQDVGIAVAWYQQKPGKVPKLLIYWASTRHTGVPDRFSGSGSGTDFTLTISSLQPEDVATYYCQQYSSYPYTFGQGTKVEIKGGGGSGGGGSGGGGSEVQLVESGGGLVQPGGSLRLSCAASGFDFSRYWMSWVRQAPGKGLEWIGEINPDSSTINYAPSLKDKFIISRDNAKNSLYLQMNSLRAEDTAVYYCARPDGNYWYFDVWGQGTLVTVSSTREQKLISEEDGSGIQNPDPAVYQLRDSKSSDKSVCLFTDFDSQTNVSQSKDSDVYITDKCVLDMRSMDFKSNSAVAWSNKSDFACANAFNNSIIPEDTFFPSSDVPCDVKLVEKSFETDTNLNFQNLSVIGFRILLLKVAGFNLLMTLRLWSSRAKRSGSGVKQTLNFDLLKLAGDVESNPGPSRGHMTEYKPTVRLATRDDVPRAVRTLAAAFADYPATRHTVDPDRHIERVTELQELFLTRVGLDIGKVWVADDGAAVAVWTTPESVEAGAVFAEIGPRMAELSGSRLAAQQQMEGLLAPHRPKEPAWFLATVGVSPDHQGKGLGSAVVLPGVEAAERAGVPAFLETSAPRNLPFYERLGFTVTADVEVPEGPRTWCMTRKPGA | (+/−) | RAJI (+), NALM6 |  | 
010417-H05 (protein) MALPVTALLLPLALLLHAARPLEGKPIPNPLLGLDSTGSGEDLKNVFPPEVAVFEPSKAEIAHTQKATLVCLATGFYPDHVELSWWVNGKEVHSGVCTDPQPLKEQPALNDSRYCLSSRLRVSATFWQNPRNHFRCQVQFYGLSENDEWTQDRAKPVTQIVSAEAWGRADCGITSASYHQGVLSATILYEILLGKATLYAVLVSALVLMAMVKRKDSRGRAKRSGSGATNFSLLKQAGDVEENPGPTSMALPVTALLLPLALLLHAARPEIVLTQSPDFQSVTPKEKVTITCRASESVDTFGISFMNWFQQKPDQSPKLLIHAASNQGSGVPSRFSGSGSGTDFTLTINSLEAEDAATYYCQQSKEVPFTFGGGTKVEIKGGGGSGGGGSGGGGSEVQLVESGGGLVQPGGSLRLSCAASGFTFSSSWMNWVRQAPGKGLEWVGRIYPGDGDTNYNGKFKGRFTISRDDSKNSLYLQMNSLKTEDTAVYYCARSGFITTVLDFDYWGQGTLVTVSSTREQKLISEEDGSGIQNPDPAVYQLRDSKSSDKSVCLFTDFDSQTNVSQSKDSDVYITDKCVLDMRSMDFKSNSAVAWSNKSDFACANAFNNSIIPEDTFFPSSDVPCDVKLVEKSFETDTNLNFQNLSVIGFRILLLKVAGFNLLMTLRLWSSRAKRSGSGVKQTLNFDLLKLAGDVESNPGPSRGHMTEYKPTVRLATRDDVPRAVRTLAAAFADYPATRHTVDPDRHIERVTELQELFLTRVGLDIGKVWVADDGAAVAVWTTPESVEAGAVFAEIGPRMAELSGSRLAAQQQMEGLLAPHRPKEPAWFLATVGVSPDHQGKGLGSAVVLPGVEAAERAGVPAFLETSAPRNLPFYERLGFTVTADVEVPEGPRTWCMTRKPGA | (+) | RAJI (2+), NALM6 |  | 
030217-A05 (protein) MALPVTALLLPLALLLHAARPDEIVLTQSPATLSLSPGERATLSCSASSSVSYMHWYQQKPGQAPRLLIYDTSKLASGIPARFSGSGSGTDFTLTISSLEPEDVAVYYCFQGSVYPFTFGQGTKLEIKRGGGGSGGGGSGGGGSQVQLQESGPGLVKPSQTLSLTCTVSGGSISTSGMGVGWIRQHPGKGLEWIGHIWWDDDKRYNPALKSRVTISVDTSKNQFSLKLSSVTAADTAVYYCARMELWSYYFDYWGQGTLVTVSSLEGKPIPNPLLGLDSTGSGEDLKNVFPPEVAVFEPSKAEIAHTQKATLVCLATGFYPDHVELSWWVNGKEVHSGVCTDPQPLKEQPALNDSRYCLSSRLRVSATFWQNPRNHFRCQVQFYGLSENDEWTQDRAKPVTQIVSAEAWGRADCGITSASYHQGVLSATILYEILLGKATLYAVLVSALVLMAMVKRKDSRGRAKRSGSGATNFSLLKQAGDVEENPGPTSTMALPVTALLLPLALLLHAARPDIQMTQSPSSLSASVGDRVTITCKASQDVGIAVAWYQQKPGKVPKLLIYWASTRHTGVPDRFSGSGSGTDFTLTISSLQPEDVATYYCQQYSSYPYTFGQGTKVEIKGGGGSGGGGSGGGGSEVQLVESGGGLVQPGGSLRLSCAASGFDFSRYWMSWVRQAPGKGLEWIGEINPDSSTINYAPSLKDKFIISRDNAKNSLYLQMNSLRAEDTAVYYCARPDGNYWYFDVWGQGTLVTVSSTREQKLISEEDGSGIQNPDPAVYQLRDSKSSDKSVCLFTDFDSQTNVSQSKDSDVYITDKCVLDMRSMDFKSNSAVAWSNKSDFACANAFNNSIIPEDTFFPSSDVPCDVKLVEKSFETDTNLNFQNLSVIGFRILLLKVAGFNLLMTLRLWSSRAKRSGSGVKQTLNFDLLKLAGDVESNPGPSRGHMTEYKPTVRLATRDDVPRAVRTLAAAFADYPATRHTVDPDRHIERVTELQELFLTRVGLDIGKVWVADDGAAVAVWTTPESVEAGAVFAEIGPRMAELSGSRLAAQQQMEGLLAPHRPKEPAWFLATVGVSPDHQGKGLGSAVVLPGVEAAERAGVPAFLETSAPRNLPFYERLGFTVTADVEVPEGPRTWCMTRKPGA | (+/−), L363 (+/−), | RAJI (+), NALM6 | (+/−), L363 (+/−), | U266 (+/−)

— patent US12269859B2, “Synthetic immune receptors and methods of use thereof” (Angeles Therapeutics, Inc., priority 2016, dated 2025)
